Results on two molecules are retold here after US20230374534A1 (INDUSTRY ACADEMIC COOPERATION FOUNDATION GYEONGSANG …, published 2023).

In assay [1] the target is T1, YC-CBF1 (CBF1 fused to the C-terminal fragment of YFP) (Arabidopsis thaliana, UniProt P93835 1-213).
T1 construct: BiFC construct expressed in Nicotiana benthamiana leaves; also called YC-CBFs; not shown: C-terminal fragment of YFP (YC)
Briefly: BiFC in Nicotiana benthamiana leaves at 4 °C (FIG. 6D). As to the method: Interaction between Trx-h2 and CBFs under specific conditions was analyzed using the BiFC assay. Trx-h2 and CBFs were cloned individually into the gateway BiFC-binary vector, pDONR221, to generate pDONR221: Trx-h2 and pDONR221: CBF plasmids, respectively. The Trx-h2-YN plasmid was generated by fusing Trx-h2 with the N-terminal fragment of YFP (YN), while the YC-CBF plasmids were constructed by fusing each of the three CBFs with the C-terminal fragment of YFP (YC). These plasmids were introduced into A. tumefaciens strain GV3101, and the transformed cells were used to infiltrate the leaves of 4-week-old N. benthamiana plants. These plants were incubated at 26° C. for 2 days and then exposed to 4° C. for 6 h. Fluorescence signals generated by YFP were analyzed under a confocal microscope using the FV10-ASW 3.1 software.

The target in assay [2] is T2, CBF1-Myc (from CBF1-Myc^OE Arabidopsis plants) (Arabidopsis thaliana, UniProt P93835 1-213).
T2 construct: Overexpressed in Arabidopsis under the CaMV 35S promoter; The tag is placed C-terminal because of the name CBF1-Myc; also called CBF-Myc; CBFs-Myc; not shown: Myc tag
T2 sequence (P93835 whole entry): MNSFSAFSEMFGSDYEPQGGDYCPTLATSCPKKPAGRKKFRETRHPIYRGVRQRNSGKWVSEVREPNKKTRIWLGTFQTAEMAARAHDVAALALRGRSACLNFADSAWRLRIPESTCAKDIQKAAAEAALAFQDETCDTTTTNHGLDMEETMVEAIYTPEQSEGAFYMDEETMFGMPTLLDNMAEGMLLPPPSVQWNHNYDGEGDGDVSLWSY
Briefly: anti-Myc immunoprecipitation from CBF1-Myc^OE plants (4 °C, 6 h), then MALDI-TOF/TOF mass spectrometry. As for the experimental part: To identify the interacting partners of CBF1 in Arabidopsis, total proteins (100 mg) were extracted from 2-week-old CBF1-Myc^OE seedlings exposed to 4° C. for 6 h, and immunoprecipitated using an anti-Myc agarose (Sigma-Aldrich, St. Louis, MO, USA). The CBF1-My c-interacting proteins were washed three times at 4° C. with a buffer containing 50 mM Tris-HCl (pH 7.5), 150 mM NaCl, 1 mM EDTA, 1 mM DTT, and 0.1% NP40. The purified proteins were mixed with SDS-PAGE loading dye, heated at 90° C. for 5 min, and separated by SDS-PAGE. Proteins were identified by matrix assisted laser desorption/ionization-time of flight (MALDI-TOF)/TOF-mass spectrometry.

T1 sequence (P93835 whole entry, the tested form may be a part): as the sequence (P93835 whole entry) above

B1: Trx-h3 (control) in the BiFC assay (enzyme, Arabidopsis, UniProt Q42403 2-118, looked up)
chain: AAEGEVIACHTVEDWTEKLKAANESKKLIVIDFTATWCPPCRFIAPVFADLAKKHLDVVFFKVDVDELNTVAEEFKVQAMPTFIFMKEGEIKETVVGAAKEEIIANLEKHKTVVAAA
notes: BiFC control; The YFP fragment fused to it is not described
For B1, in assay [1], the binding result is “no binding”.

B2: Trx-h2, endogenous protein in Arabidopsis plants (enzyme)
chain: GGALSTVFGSGEDATAAGTESEPSRVLKFSSSARWQLHFNEIKESNKLLVVDFSASWCGPCRMIEPAIHAMADKFNDVDFVKLDVDELPDVAKEFNVTAMPTFVLVKRGKEIERIIGAKKDELEKKVSKLRA
modifications: myristoylated at Gly2 at 22 °C; demyristoylated at 4 °C
notes: Native Trx-h2 that co-precipitated with CBF-Myc from plant extracts (IP/mass spectrometry and Co-IP); also called thioredoxin h2
B2: the binding result in assay [2] is recorded as “binds”.
